This assay addresses T1, HasR TonB box dodecamer peptide (Serratia marcescens).
T1 chain: ALDSLTVLGAGG
The experiment in a line: ITC.

B1: TonBCTD CTD (protein)
chain: not shown
Turning to B1, the Kd is around 50 µM.
